Assay results taken from paper PMC6981161.
Where no end group is shown, it is not given here. The star is where a group is joined. Biotin = O=C1N[C@H]2[C@H](CS[C@H]2CCCCC(=O)*)N1

Columns and labels:
[1] = molecular target: proteins of hBMECs (protein extract coated in microtiter wells, ELISA with recombinant ligands) (human (endogenous in hBMECs)); assay: ELISA; protein extract of hBMECs coated in microtiter wells, blocked; recombinant ligand added; detected with HisProbe-HRP conjugate and TMB substrate, absorbance at 450 nm; semi-quantitative
[2] = molecular target: proteins of hBMECs (protein extract coated in microtiter wells, ELISA with synthetic analogues) (human (endogenous in hBMECs)); assay: ELISA; protein extract of hBMECs coated in microtiter wells, blocked; biotinylated synthetic peptide added; detected with streptavidin-HRP conjugate; semi-quantitative

| Molecule | absorbance at 450 nm (absorbance at 450 nm) [1] | absorbance [2] |
| --- | --- | --- |
| recombinant NadA (neisserial adhesin A) of Neisseria meningitidis, globular domain with the first coiled-coil structure (domain or fragment) | 1.14 |  |
| recombinant domain III of protein E of West Nile virus (domain or fragment) | 2.2 |  |
| GTTYGVCSK(Biotin) [DIII-1 synthetic analogue (…-biotin)] |  | 2.06 absorbance |
